Patent publication US20230265170A1

Columns and labels:
Experiment in all cases: cell-based or functional assay
[1] = target: SARS-CoV-2 Omicron BA.1 spike (S) protein (SARS-CoV-2)
[2] = target: SARS-CoV-2 Omicron BA.2 spike (S) protein (SARS-CoV-2)
[3] = target: SARS-CoV-2 Omicron BA.3 spike (S) protein (SARS-CoV-2)

Chain of AZD8895 (antibody) (VH): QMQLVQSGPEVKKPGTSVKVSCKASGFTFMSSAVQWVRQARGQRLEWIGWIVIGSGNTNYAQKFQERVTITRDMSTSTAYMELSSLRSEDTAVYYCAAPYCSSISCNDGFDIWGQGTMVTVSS
Chain of AZD8895 (antibody) (VL): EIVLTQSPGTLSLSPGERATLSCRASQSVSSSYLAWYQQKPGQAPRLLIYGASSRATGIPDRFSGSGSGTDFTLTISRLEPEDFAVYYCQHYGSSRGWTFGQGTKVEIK

Substance	IC50, pseudoviral neutralization [1]	IC50, pseudoviral neutralization [2]	IC50, pseudoviral neutralization [3]
ADG10 (antibody)	> 10 µg/mL	> 10 µg/mL	> 10 µg/mL
ADG20 (antibody)	0.348 µg/mL	> 10 µg/mL	> 10 µg/mL
ADG30 (antibody)	> 10 µg/mL	> 10 µg/mL	> 10 µg/mL
AZD1061 (antibody)	0.308 µg/mL	0.008 µg/mL	0.019 µg/mL
AZD8895 (antibody)	0.246 µg/mL	1.33 µg/mL	> 10 µg/mL
Ly-CoV16 (antibody)	> 10 µg/mL	> 10 µg/mL	> 10 µg/mL
Ly-CoV555 (antibody)	> 10 µg/mL	> 10 µg/mL	> 10 µg/mL
Ly-CoV1404 (antibody)	0.002 µg/mL	0.001 µg/mL	0.002 µg/mL
REGN10933 (antibody)	> 10 µg/mL	> 10 µg/mL	> 10 µg/mL
REGN10987 (antibody)	> 10 µg/mL	0.516 µg/mL	> 10 µg/mL
S309 (antibody)	0.313 µg/mL	0.638 µg/mL	0.311 µg/mL
